Laboratory results published in the supplement of paper PMC10126150.
± gives the standard deviation of the averaged measurements.

test system: ATP; test: switch fluorescence ratio, 500 uM ATP over buffer (Cy3 cluster intensity, sum of 5 cycles each) (fold (ratio)); higher = stronger signal-on switching upon ATP binding; sequences stand for … in TCGTCGGCAGCGTCAGATGTGTATAAGAGACAGTTTTTTTTTTTTTTTTTTTTTTTTT…TC; details: aptamer strand: ATP DNA aptamer (quencher-CACCTGGGGGAGTATTGCGGAGGAAGG + anchor), 100 nM annealed; ATP concentration: 500 uM
Procedure, shortened: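 Imaging in selection buffer was followed by imaging after 15 min with 500 uM ATP at 22 °C, for Cy3-labelled switching-strand clusters annealed to 100 nM quencher-labelled ATP aptamer on a modified Illumina MiSeq flow-cell. Five of these buffer/ATP cycles ran, separated by NaOH stripping and re-annealing. The fluorescence ratio per cluster is summed target-cycle over summed buffer-cycle Cy3 intensity, averaged per switch-domain sequence; clusters outside 100-1000 RFU were removed.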
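Further: ATP exposure 15 min at 22 °C before imaging.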

| Sequence | switch fluorescence ratio |
| --- | --- |
| CTGAAATTTT | 1.0192 ± 0.00063 |
| GCGTATGTAC | 1.212 ± 0.0081 |
| TCCGTTTTGA | 1.001 ± 0.0095 |
| CTATGTATTG | 0.9695 ± 0.0096 |
| GTCGTGTGGG | 0.996 ± 0.0025 |
| GGTAGTGGGT | 1 ± 0.013 |
| TTTTGAGACG | 1.09 ± 0.011 |
| ACGGTTAGGG | 1.05 ± 0.043 |
| GAAAAAAAGA | 1 ± 0.021 |
| TTCGGTTTGC | 1.02 ± 0.066 |
| GTTATACGGT | 0.997 ± 0.057 |
| AGGGACGTTC | 0.967 ± 0.024 |
| ACTTACATGG | 1.23 ± 0.06 |
| ATTGTTGTTC | 1.06 ± 0.057 |
| GATAGAGCAT | 1.01 ± 0.013 |
| TCAACGATAT | 1.07 ± 0.075 |
| ATGGATAAGC | 0.997 ± 0.011 |
| TGGGTTCGCG | 0.988 ± 0.021 |
| AGGCGCAATT | 1.81 ± 0.94 |
| AGTAAGGATC | 1 ± 0.031 |
| GGGTAGGCGC | 1.04 ± 0.029 |
| CAGTCGTGGA | 0.969 ± 0.016 |
| GGACAAGCGT | 0.987 ± 0.021 |
| TGGAGAAGAT | 0.978 ± 0.03 |
| TTTGAATATT | 0.991 ± 0.036 |
| GCTCTTTAGA | 0.962 ± 0.018 |

| Sequence | switch fluorescence ratio |
| --- | --- |
| TCCTGTCTTT | 1.01 ± 0.014 |
| TCACAGATGG | 1.02 ± 0.036 |
| AAATGAAAAA | 0.99 ± 0.091 |
| TAGTATAGGA | 0.973 ± 0.056 |
| AAGAGCGAGT | 1 ± 0.011 |
| TGGGGATATG | 0.997 ± 0.019 |
| ACGAAATTGG | 1.04 ± 0.068 |
| GGGGGAGGGT | 0.997 ± 0.036 |
| ATAGAATCAA | 1.02 ± 0.022 |
| ATGTTGAGCC | 0.9874 ± 0.0022 |
| TATTCGTTTT | 0.989 ± 0.011 |
| TATCGCGTTC | 1.09 ± 0.078 |
| CTAGTGCCAG | 1.016 ± 0.0069 |
| CTCGGGGGAG | 0.991 ± 0.026 |
| AATATCTCTG | 1.02 ± 0.03 |
| TAGCCTTACG | 1.123 ± 0.0043 |
| TCATTGAAGT | 0.991 ± 0.008 |
| ACCACTAAAA | 1.04 ± 0.019 |
| TTTGATAATT | 1.07 ± 0.15 |
| TCGATGCTAG | 1.03 ± 0.065 |
| TAAATGAATT | 1.05 ± 0.096 |
| GTGGGGGCGT | 1 ± 0.026 |
| TGGTCGCGAT | 1.53 ± 0.73 |
| GTTGTTGCTA | 0.99 ± 0.034 |
| TTGGATGAAG | 0.982 ± 0.022 |
| CGGGGCGGTC | 0.96 ± 0.047 |

| Sequence | switch fluorescence ratio |
| --- | --- |
| GCTTGCGGTC | 0.9873 ± 0.0095 |
| GGGGGCCCTC | 0.985 ± 0.01 |
| GACAGAGCCA | 1.1036 ± 0.0011 |
| AAAGAGTATA | 0.9972 ± 0.0036 |
| TTTTGCAGG | 0.991 ± 0.05 |
| TAGGGGAGTG | 1.02 ± 0.035 |
| CATTTGTGGT | 1.02 ± 0.014 |
| TGTTTGAAAA | 0.953 ± 0.027 |
| GAAGGGGGTT | 0.973 ± 0.036 |
| GCATGGTAGC | 0.994 ± 0.037 |
| GTCAGGATTT | 0.9925 ± 0.0087 |
| CGTAGTTCGA | 1.02 ± 0.018 |
| GACCTCAGGT | 1.08 ± 0.11 |
| CAGTAGGTCT | 1.01 ± 0.027 |
| AGAACGTCTG | 0.9969 ± 0.0022 |
| ACGTTGGATT | 1.01 ± 0.014 |
| TCTTTTTGGC | 1.01 ± 0.034 |
| AAAAAATTCG | 1.03 ± 0.017 |
| CGGGGAAGGG | 1.005 ± 0.0032 |
| CGGTGCGACG | 0.958 ± 0.041 |
| GTTGTCGCTT | 0.9811 ± 0.0057 |
| CAATAGACGG | 1.04 ± 0.046 |
| CATGGAGTGT | 1.01 ± 0.026 |
| CCTAGCCCTT | 1.05 ± 0.054 |
| GGGGTAATCT | 0.99977 ± 0.00079 |
| CGATATTGCC | 0.9909 ± 0.0097 |

| Sequence | switch fluorescence ratio |
| --- | --- |
| CATGGGAGCT | 1.01 ± 0.043 |
| GAATCGGGGT | 0.992 ± 0.045 |
| AGGGATTGCG | 0.9971 ± 0.0093 |
| AACTGCAAGT | 0.993 ± 0.027 |
| GGGTTAGGTG | 1.14 ± 0.065 |
| AATGGGGGTG | 1.02 ± 0.032 |
| GGGGGCGTTG | 1.01 ± 0.02 |
| GGAGTAGGCT | 0.938 ± 0.057 |
| TATGAGGTAA | 1.02 ± 0.028 |
| TCAGTTGTAC | 1.08 ± 0.011 |
| AGTGCTTTTT | 1.01 ± 0.012 |
| AAGAATATTT | 1.01 ± 0.012 |
| GTTGCAGCTG | 0.962 ± 0.037 |
| ATTGTGACTG | 0.975 ± 0.037 |
| TTTTGAGAAA | 0.99 ± 0.028 |
| TCGGGGGGAC | 1.03 ± 0.036 |
| AAGTTAATCT | 0.988 ± 0.019 |
| ATAAGTCTGT | 1.008 ± 0.0073 |
| GATATGGGTG | 1.04 ± 0.049 |
| AGTTATGTAG | 1.01 ± 0.052 |
| GTTTTCGGGT | 1.01 ± 0.052 |
| GGGTCGGCTA | 1.02 ± 0.035 |
| CCCCGGATGG | 1.26 ± 0.22 |
| TTATAGGGGA | 0.998 ± 0.082 |
| AATGTGGATA | 0.984 ± 0.028 |
| CAAGAAAAGT | 0.978 ± 0.048 |

| Sequence | switch fluorescence ratio |
| --- | --- |
| CGAAAAGGCT | 1.01 ± 0.016 |
| AGTATGAGTA | 1.015 ± 0.0088 |
| TAGAGTTTGG | 1 ± 0.045 |
| TTCGGGGAAT | 0.982 ± 0.034 |
| GCAACTTATT | 0.983 ± 0.022 |
| GGCTGTAGAC | 1.006 ± 0.0059 |
| CGGGCTCTGG | 1.02 ± 0.0016 |
| TTTTTTAAGT | 0.995 ± 0.024 |
| AGGTAGCTGT | 1.04 ± 0.053 |
| CTGTTAGGGG | 0.967 ± 0.03 |
| TTCGCTGTTC | 1.28 ± 0.027 |
| TTTTGGCGAC | 0.976 ± 0.027 |
| TAAGGAGAAT | 0.9676 ± 0.0046 |
| AAATTGAACT | 1.03 ± 0.017 |
| GTGCATGGGG | 1.02 ± 0.0056 |
| TTCGGCGGTG | 0.98 ± 0.045 |
| ATTTGGGTGG | 0.987 ± 0.041 |
| TCTGATTTGT | 1.01 ± 0.013 |
| TCATTATTAA | 1.01 ± 0.027 |
| AGGTAGGCAT | 1 ± 0.041 |
| TGCATTTTTT | 0.981 ± 0.034 |
| TTTTGTCCAT | 0.992 ± 0.015 |
| ATAAGGGTCC | 1.04 ± 0.066 |
| TTATTTTTGA | 1.07 ± 0.096 |
| ATGGCCGATA | 0.9537 ± 0.0027 |
| GGGTGCGATT | 1.03 ± 0.025 |

| Sequence | switch fluorescence ratio |
| --- | --- |
| CGGGGATTCC | 1.06 ± 0.031 |
| GAGGATATAG | 1.03 ± 0.061 |
| AGCAGACGGC | 1.03 ± 0.024 |
| ATCGTTTTGA | 0.989 ± 0.013 |
| GAAGATTATA | 0.9865 ± 0.0044 |
| TTGGCGCGGC | 1.1 ± 0.063 |
| AATGTTTTGA | 0.995 ± 0.016 |
| CTGATGGGGA | 0.961 ± 0.033 |
| ATTAAATTGT | 0.9919 ± 0.0062 |
| ATGGCACAAT | 1.02 ± 0.067 |
| GGTTGGGATG | 0.951 ± 0.022 |
| TTTTTACAAG | 1.21 ± 0.3 |
| CGGAAGCATT | 1.44 ± 0.017 |
| AACGCGCGCC | 1.01 ± 0.05 |
| GGGGTTGAGT | 1.001 ± 0.005 |
| GACTGAGTTG | 0.998 ± 0.036 |
| ATGGACTCCT | 1.04 ± 0.044 |
| TTGGATAGCG | 0.982 ± 0.017 |
| TCAGTGTCCG | 0.966 ± 0.038 |
| TAGGTTTGAA | 0.9922 ± 0.0018 |
| TCAAGATGTG | 0.99 ± 0.036 |
| CGGGTGAATT | 1.01 ± 0.071 |
| ATGTTTCTAT | 0.982 ± 0.027 |
